These results are taken from publication PMC8184503 (iScience, 2021).

Primed or numbered codes have the meaning given here. Where no end group is shown, it is not given here. FITC′ = fluorescein isothiocyanate

For the assay, the target named is T1, His-tagged β-cat (ARM domain, aa 134-668) (UniProt P35222 134-668).
T1 sequence (looked up): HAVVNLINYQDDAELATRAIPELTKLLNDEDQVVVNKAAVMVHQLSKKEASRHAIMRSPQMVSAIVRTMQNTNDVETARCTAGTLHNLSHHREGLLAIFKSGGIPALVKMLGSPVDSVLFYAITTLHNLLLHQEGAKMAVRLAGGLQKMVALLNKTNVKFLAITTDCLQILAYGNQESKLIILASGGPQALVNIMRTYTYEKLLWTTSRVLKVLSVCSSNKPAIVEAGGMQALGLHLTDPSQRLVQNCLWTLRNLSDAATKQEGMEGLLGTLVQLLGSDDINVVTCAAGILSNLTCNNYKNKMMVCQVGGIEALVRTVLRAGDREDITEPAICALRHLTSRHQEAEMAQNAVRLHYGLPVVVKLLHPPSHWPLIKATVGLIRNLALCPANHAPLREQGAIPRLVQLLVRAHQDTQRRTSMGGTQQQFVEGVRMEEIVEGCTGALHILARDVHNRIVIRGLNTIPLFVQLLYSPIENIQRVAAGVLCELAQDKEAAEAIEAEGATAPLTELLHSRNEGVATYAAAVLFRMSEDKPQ
Kind of assay: SPR.

B1: C-terminal FITC-labeled TCF4 peptide (aa 7-51) (peptide)
peptide: GGGDDLGANDELISFKDEGEQEEKSSENSSAERDLADVKSSLVNE-{FITC′}
Take B1: it took 29 nM to reach half-maximal inhibition (IC50). This counts as double-digit nanomolar.

B2: GST-tagged TCF4 N-terminal domain (aa 1-55) (domain or fragment, UniProt Q9NQB0 1-55, looked up)
chain: MPQLNGGGGDDLGANDELISFKDEGEQEEKSSENSSAERDLADVKSSLVNESETN
Turning to B2, the binding result is given as “binds”.
